Measurements as given in patent US9766250B2, “Method for detecting protein-protein interaction” (MEDICAL & BIOLOGICAL LABORATORIES CO., LTD., priority 2011, dated 2017).
Changes are numbered by the printed parent chain.

B1: TGuv: fluorescent protein capable of homotetramerization, SEQ ID NO: 147 (protein)
chain: MVSVIGKDMIMKLHVEGCVNGHSFKIEGDGKGKPYEGDQTVKLRVTEGGPLPFAFDILSASMCYGNRCFTKYPAEIPDIFKQTFPEGYSWERALTFEDGGFASSSSHISVRGNCFFYDVKYHGVNFPSNGPIMQRKTIGWQPSTEKLYIGEGTLKGDDTMFLKLEGGGTHKCHVLTTYKTKKDVQMPDSHFIDHRLLTSHLDKECNNVELREHAVARNSSLPSR
modifications: Synthetic sequence TGuv
B2: monomeric Kusabira-Orange 2 (protein)
chain: MVSVIKPEMKMRYYMDGSVNGHEFTIEGEGTGRPYEGHQEMTLRVTMAEGGPMPFAFDLVSHVFCYGHRVFTKYPEEIPDYFKQAFPEGLSWERSLEFEDGGSASVSAHISLRGNTFYHKSKFTGVNFPADGPIMQNQSVDWEPSTEKITASDGVLKGDVTMYLKLEGGGNHKCQMKTTYKAAKEILEMPGDHYIGHRLVRKTEGNITEQVEDAVAHS
modifications: Synethetic sequence of monomeric version pf KO(Kusabira-Orange)
B3: monomericMidoriishi-Cyan1 (protein)
chain: MVSYSKQGIAQEMRTKYRMEGSVNGHEFTIEGVGTGNPYEGKQTSELVIIKPKGKPLPFSFDILSTVFQYGNRCFTKYPADMPDYFKQAFPDGMSYERSFLFEDGGVATASWSIRLEGNCFIHNSIYHGTNFPADGPVMKKQTIGWDKSSEKMSVAKEVLRGDVTQFLLLEGGGYQRCQLHSTYKTEKPVAMPPSHVVEHQIVRTDLGQTAKGFKVKLEEHAEAHVNPLKVK
modifications: Synthetic sequence mMiCy1
B4: COR3.01: fluorescent protein capable of homotetramerization, SEQ ID NO: 151 (protein)
chain: MALSKHGLTKNMTTKYRMEGCVDGHKFVITGDGIGDPFEGKQTSIDLCVVEGGPLPFSEDILSTVFDYGNRVFTKYPQDLVDYFKNSCPAGYTWQRSFLFEDGAVCTASADIRVSVEENCFYHESKFHGVNFPADGPVMKKMTTNWEPSCEKITPILNEGILKGDVTMFLLLKDGGRYRCQFDTVYKAKADAKKMPEWHFIQHELTREDRSDAKHQKWRLVENAIAYRSTLP
modifications: Synthetic sequence COR3.01
B5: COR5: fluorescent protein capable of homotetramerization, SEQ ID NO: 172 (protein)
chain: B4 chain with K194D, W198M, N223S, L231P
modifications: Synthetic sequence COR5
B6: Momiji: fluorescent protein capable of homotetramerization, SEQ ID NO: 149 (protein)
chain: MVSVIKDEMKVNLRMEGSVNGHDFVIDGLGSGKPKEGTQTIELKVVKGGPLPFAYDILTTAFHYGNRVFAKYPKDIPNYFEQSFPEGYSWERSMIFEDGGICIARNDITMDGGTFYNKVRFYGVNFPPNGPVMQKKTQKWEQSTEKMYARDGVLTGDINMALLLKGGGHYRCDFRTTYKAKEKGVKLPGYHFIDHCIEILSHRNDYNNVTLFEHAVARSGLQDKEKQQQ
modifications: Synthetic sequence Momiji
B7: Kusabira-Cyan1 (protein)
chain: MVSVIKPEMKMRYYMDGSVNGHEFTVEGEGTGRPYEGKHKITLDVTKGGPLPFAFDLLSTVFSYGNRALTKYPDDIPDYFKQCFPGGYSWERKFEFEDGGLAIAKAEISLKGNCFEHKSTIEGTFPDSSPIMQNKTLGWEPSTEKMTVRDGSMKGDDAAYLKLVGGGNHKCYFTTTYTAKKKIPNLPGSHFIGHRISSVVEGTKIKVMEDAIAHLYPFNGS
modifications: Synthetic sequence KCy1
B8: dimeric Azami-Green (AB) (protein)
chain: MVSVIKPEMKIKLCMRGTVNGHNFVIEGEGKGNPYEGTQILDLNVTEGAPLPFAYDILTTVFQYGNRAFTKYPADIQDYFKQTFPEGYHWERSMTYEDQGICTATSNISMRGDCFFYDIRFDGVNFPPNGPVMQKKTLKWEPSTEKMYVRDGVLKGDVNMALLLEGGGHYRCDFKTTYKAKKDVRLPDAHKVDHRIEILKHDKDYNKVKLYENAVARYSMLPSQAK
modifications: Synthetic sequence dAG(AB)
B9: dimeric Azami-Green (AC) (protein)
chain: B8 chain with V124T, A189Y, K191F
modifications: Synthetic sequence dAG(AC)

Key:
[1] = target: T1, mTOR(FRB) and FKBP12 interaction (Homo sapiens, UniProt P42345+P62942); assay: Degree of fluorescent focus (assembly) formation after rapamycin, fluorescent proteins fused to mTOR(FRB) (Example 8, Table 1); type: cell-based; set-up: key to degree of fluorescent focus formation, Tankyrase (SAM): +++: fluorescent foci were observed in 50% or more of the HeLaS3 cells; ++: fluorescent foci were observed in 50% or less of the HeLaS3 cells; +: fluorescent foci were observed in 293T cells expressing a larger amount of proteins than that in the HeLaS3 cells; conditions: fluorescent protein fused to mTOR(FRB); for degree of fluorescent focus formation, DGKd (SAM): with FKBP12-DGKd(SAM); for degree of fluorescent focus formation, TEL (SAM): with FKBP12-TEL(SAM); for degree of fluorescent focus formation, Tankyrase (SAM): with FKBP12-Tankyrase(SAM), some combinations in 293T cells; for degree of fluorescent focus formation, P62 (PB1): with p62(PB1)-FKBP12
T1 construct: region having the 2025th to 2114th amino acids of the mTOR protein; expressed in transfected cells; host or cells: HeLaS3; 293T for some combinations with FKBP12-Tankyrase(SAM)
Method: Note that plasmid DNAs encoding fusion proteins composed of mTOR(FRB) and the corresponding fluorescent proteins were prepared as appropriate by the same method as that described in Example 2. Moreover, regarding the combinations of FKBP12-Tankyrase(SAM) with mKO2, mKeima, mMiCy1, mKO1, MiCy1, and TGuv, the test was conducted by introducing the genes into 293T cells. Specifically, the 293T cells were cultured in DMEM High glucose (manufactured by SIGMA ALDRICH CO.) containing 10% FBS (manufactured by Equitech-Bio Inc.). Moreover, the 293T cells were seeded onto an 8-well chamber (manufactured by Nunc A/S) 6 hours before the plasmid DNAs were introduced. Further, at the time of the transfection, 200 ng of the plasmid DNA encoding FKBP12-Tankyrase(SAM) and 200 ng of one of the plasmid DNAs encoding fusion proteins composed of the fluorescent proteins and mTOR(FRB) were diluted with 30 μl of OptiMEM (manufactured by Life Technologies Corporation), and 1.2 μl of TurboFect Transfection Reagent (manufactured by Thermo Fisher Scientific Inc.) was added thereto and stirred. Then, the resultant was further mixed with 300 μl of the culture solution, subsequently added to the 293T cells, and observed 48 hours later.

[2] = target: T1, mTOR(FRB) and FKBP12 interaction; assay: Degree of fluorescent focus (assembly) formation after rapamycin with TFG(PB1) (Example 9, Table 2); type: cell-based; set-up: key: ++: fluorescent foci were observed in 50% or less of the HeLaS3 cells; +: fluorescent foci were observed in the 293T cells expressing a larger amount of proteins than that in the HeLaS3 cells; conditions: fluorescent protein fused to mTOR(FRB), KO1 and dAG (AB) in 293T cells

T1 sequence (P42345 2025-2114): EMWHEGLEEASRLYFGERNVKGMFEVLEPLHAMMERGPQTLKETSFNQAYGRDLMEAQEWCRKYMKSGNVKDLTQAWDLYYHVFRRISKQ
T1 sequence (P62942 whole entry, the tested form may be a part): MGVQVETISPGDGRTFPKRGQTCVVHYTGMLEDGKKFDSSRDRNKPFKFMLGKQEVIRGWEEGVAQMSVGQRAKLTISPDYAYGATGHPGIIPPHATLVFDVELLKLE

Row | Molecule | degree of fluorescent focus formation, DGKd (SAM) [1] | degree of fluorescent focus formation, TEL (SAM) [1] | degree of fluorescent focus formation, Tankyrase (SAM) [1] | degree of fluorescent focus formation, P62 (PB1) [1] | degree of fluorescent focus formation, TFG (PB1) [2]
1 | B1 | +++ (fluorescent foci were observed in 50% or more of the HeLaS3 cells) | +++ (fluorescent foci were observed in 50% or more of the HeLaS3 cells) | + | +++ (fluorescent foci were observed in 50% or more of the HeLaS3 cells) | –
2 | B2 | +++ (fluorescent foci were observed in 50% or more of the HeLaS3 cells) | ++ (fluorescent foci were observed in 50% or less of the HeLaS3 cells) | + | +++ (fluorescent foci were observed in 50% or more of the HeLaS3 cells) | –
3 | B3 | +++ (fluorescent foci were observed in 50% or more of the HeLaS3 cells) | +++ (fluorescent foci were observed in 50% or more of the HeLaS3 cells) | + | +++ (fluorescent foci were observed in 50% or more of the HeLaS3 cells) | –
4 | B4 | +++ (fluorescent foci were observed in 50% or more of the HeLaS3 cells) | +++ (fluorescent foci were observed in 50% or more of the HeLaS3 cells) | +++ (fluorescent foci were observed in 50% or more of the HeLaS3 cells) | +++ (fluorescent foci were observed in 50% or more of the HeLaS3 cells) | ++ (fluorescent foci were observed in 50% or less of the HeLaS3 cells)
5 | B5 | +++ (fluorescent foci were observed in 50% or more of the HeLaS3 cells) | +++ (fluorescent foci were observed in 50% or more of the HeLaS3 cells) | +++ (fluorescent foci were observed in 50% or more of the HeLaS3 cells) | +++ (fluorescent foci were observed in 50% or more of the HeLaS3 cells) | ++ (fluorescent foci were observed in 50% or less of the HeLaS3 cells)
6 | B6 | +++ (fluorescent foci were observed in 50% or more of the HeLaS3 cells) | +++ (fluorescent foci were observed in 50% or more of the HeLaS3 cells) | +++ (fluorescent foci were observed in 50% or more of the HeLaS3 cells) | +++ (fluorescent foci were observed in 50% or more of the HeLaS3 cells) | ++ (fluorescent foci were observed in 50% or less of the HeLaS3 cells)
7 | B7 | +++ (fluorescent foci were observed in 50% or more of the HeLaS3 cells) | +++ (fluorescent foci were observed in 50% or more of the HeLaS3 cells) | ++ (fluorescent foci were observed in 50% or less of the HeLaS3 cells) | +++ (fluorescent foci were observed in 50% or more of the HeLaS3 cells) | –
8 | B8 | +++ (fluorescent foci were observed in 50% or more of the HeLaS3 cells) | +++ (fluorescent foci were observed in 50% or more of the HeLaS3 cells) | ++ (fluorescent foci were observed in 50% or less of the HeLaS3 cells) | +++ (fluorescent foci were observed in 50% or more of the HeLaS3 cells) | +
9 | B9 | +++ (fluorescent foci were observed in 50% or more of the HeLaS3 cells) | +++ (fluorescent foci were observed in 50% or more of the HeLaS3 cells) | ++ (fluorescent foci were observed in 50% or less of the HeLaS3 cells) | +++ (fluorescent foci were observed in 50% or more of the HeLaS3 cells) | ++ (fluorescent foci were observed in 50% or less of the HeLaS3 cells)
